Laboratory results from publication PMC4111287.

Biological target: soluble human PEX3 (reading frame from G25, C235S) (human) (UniProt P56589)
Test: native MS; PEX3 and PEX19 mixed in equimolar concentrations (5-10 µM), overnight at 4°C in 20 mM sodium phosphate, 300 mM NaCl, 1 mM DTT, pH 8.0; nano-electrospray on a QToF I under conditions that preserve non-covalent interactions; complex analysed at 10 µM

UniProt P56589, sequence (P56589 25-373 C235S): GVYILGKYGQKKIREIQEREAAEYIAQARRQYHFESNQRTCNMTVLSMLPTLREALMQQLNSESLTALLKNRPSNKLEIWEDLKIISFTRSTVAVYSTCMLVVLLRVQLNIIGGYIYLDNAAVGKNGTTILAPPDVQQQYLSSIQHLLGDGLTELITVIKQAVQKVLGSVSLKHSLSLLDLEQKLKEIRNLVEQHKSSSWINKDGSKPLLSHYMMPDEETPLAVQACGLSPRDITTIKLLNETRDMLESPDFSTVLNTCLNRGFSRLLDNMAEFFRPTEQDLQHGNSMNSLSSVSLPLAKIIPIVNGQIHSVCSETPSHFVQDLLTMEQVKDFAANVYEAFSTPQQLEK

Substance: full length human PEX19 with an N-terminal His-tag (from UniProt P56589 1-373) (natural protein)
- stoichiometry N: 1
